# According to the supplement of paper PMC12764529:
# ± gives the half width of the 95% confidence interval.
# Experiment: folding stability dG unfold (combined trypsin and chymotrypsin); higher = more stable
# Procedure, shortened: (§1)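 Sequencing followed digestion of designed mini-proteins with trypsin and chymotrypsin, each at 11 concentrations in threefold dilutions together with a no-protease condition. The mini-proteins were under 80 residues, had no cysteine, sat in a PA-tagged cDNA display construct, and were kept only if AlphaFold2 dimer inter-PAE was above 15. From the counts, Bayesian fitting gave K50, and unfolding free energy was derived against a sequence-predicted unfolded-state K50 and a shared folded-state K50, per protease or combined.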
row,Sequence,folding stability dG unfold [kcal/mol]
1,SAGGSAGGSAAPDEKLKITVELVDPNNGKRIEEKEYPNMTIEEVKKEAEEKGLKIVKIEVSSAGGSAGGSAG [r3_423_JUSTAS],-0.173 ± 0.29
2,SAGGSAGGSAGGMKTITLTTTSPEEAEAAKEKLLKEGPNNLVITYKPPPEPYPENGPRVVSAGGSAGGSAGG [r7_261_JUSTAS],0.683 ± 0.21
3,SAGGGFDPSKLKKEKTLTLTLPGNSETFTIELYLPEDGESTVVFSYNDKNYELTITKDSITLKPVSSSAGGS [r16_711_JUSTAS],2.79 ± 0.2
4,SAGGTFQVKDPNGKQKPVQLRVRITFEFKGGDKQTFEIEVEGATVDDLREFANSLMNKGFKPVSIEIWSAGG [r13_227_TrROS],1.88 ± 0.048
5,SAGGSMSVEVEVLAKVKLPNGEEVTFPVRVTYNPETGEVTVEIDLPKEVFERLKELYPDGIIAPEPSAGGSA [r2_409_TrMRF],3.27 ± 0.048
6,SAGGPGYNINIDVKIYPDPNDNHFVIEVKITIMPMEPDPDDGGWKQRSRTVPQEILLPPGESAEDIFSAGGS [r8_323_TrROS],2.62 ± 0.13
7,SAGMTITVPGNVTVNVVITAYKFDENGNLIGPYTLVKPITVPENSTITIDLPNDEPNVVIIEIKAIPASAGG [r19_295_TrMRF],4.42 ± 0.18
8,GYTITSEVEEFEDPNSDAKYTKVTIPVVDGDPEVAREAAEEIAKERFGPGATLDIKYDPETGTVTATFTVAS [r1_273_JUSTAS],0.563 ± 0.081
9,SAGGSAKKPKPGRLFLRYEEPEKGEVVEAVLTVYPNNVVELEVRRPDGKPVPLEKALKLLKELGLLSAGGSA [r15_872_TrMRF],1.86 ± 0.14
10,SAGGKKKKKVKIKIEIAIVIPEEDLSEEERKKLAEELAERLKRELAEKLGLSEDEIEEIEVTVYRLPPSAGG [r13_5_TrROS_Hall],2.04 ± 0.21
11,SAGGPKVYLTDIVTTLPDGTVVMIGEIELPDGTPLIAITTIYKDGTVKVFIYDPNGKLIAEIEIKPKPSAGG [r13_903_TrMRF],2.78 ± 0.064

# Experiment: folding stability dG unfold from chymotrypsin proteolysis; higher = more stable
# Procedure, shortened: as §1
row,Sequence,folding stability dG unfold [kcal/mol]
1,SAGGSAGGMYVKIKVTMTADELKKLFPNIKKGEKVTVELVIKVEKAPPVKVEKKKEKKVEVKLKSAGGSAGG [r6_211_TrROS_Hall],2.21 ± 0.041
2,STIMIMFRSPEDLEKFLNEAKEMIRNGKNVPITIMAHGPNGRYWMFTIDIKMDPDGNPKIEIEWEPVPPDSA [r9_1023_TrROS],4.24 ± 0.043
3,SAGGSAGGKVTVDPAKVKAILTLKDGSKLIVLEDGVLLYNPKTEKVTLVSLSDLKKLPEDAPVPSAGGSAGG [r6_889_TrMRF],1.85 ± 0.026
4,SAGGGWKPIGKEEITLPFGIKVTVDIWTWPDGMIMIMIEIEIPVPPPKPPVPPMSPEDMKDMNEDNGSAGGS [r16_6_TrROS],3.8 ± 0.24
5,SAGMVVVKVTLPGPEEALRAAAAAVPVPVSIERDPEKPDVWTATITFPSPELAPVFVEAFAALGAEVVGSAG [r14_745_JUSTAS],1.29 ± 0.041
6,SAGGSELENMSLEELLARAEELARELAEETGRTVTVTVEVRVRLPDGSTRTFRFTVTLTVLREEDLSAGGSA [r2_157_TrROS_Hall],4.739 ± 0.04
7,SAGGPDWQTIRITFWFDSPEDAEEEVRNIARTMGLPPEGIKVEITDFEPREVNGKNYYMVEAEITIPSAGGS [r16_240_TrROS],4.274 ± 0.035
8,SAGPKTLLLNIPPGEDVELLIGDKPYRIKVDPERLIGYAFDPETGEIFLIFHDPEKPIALITVFPSPPLSAG [r5_302_TrMRF],2.46 ± 0.11
9,SAGGSAGGSAGGSVAYVAPDGDKLIVRVVRPDGSVEEKEFDSLEDLKTLPDDVPVAFLVSAGGSAGGSAGGS [r4_447_TrMRF],-0.0498 ± 0.15
10,SAGGSAGGSMYIVRIEVVNEETGKTEEIELEVSEEEAEELAKELAEKLPNIKEIKVEIRPLPESAGGSAGGS [r12_757_TrROS_Hall],1.96 ± 0.051
11,SAGGSAGGSAMTLRVKITLPDGRELELEIEAETEEEALAALKELIKKLFPEVKEVKIEVEPESAGGSAGGSA [r18_434_TrROS_Hall],4.85 ± 0.38
12,SAGGSAGGSAGGTKTIPFPIEEIEVEHNPDNNYYHVTIRFPDNGKPITFMFPPGDTITISAGGSAGGSAGGS [r10_819_TrROS],0.836 ± 0.15
13,SAGGSAGGSTALVYKNGVTVTFPVFFPDTAPAVVTLSIPSPEEAAAAVAALRAAGHAVTVEPLASAGGSAGG [r6_872_JUSTAS],1.48 ± 0.048
14,SAGGSAMMTLEEAIEKAAKNIPVGEKKIIEIKLEKGTFTVEIEKIGPKEVKIKILKISKGPEEEEISAGGSA [r15_150_TrMRF],4.68 ± 0.18
15,SAGGSAMKIKPGETVTIKVKNKETGEWFEAKIVKVDEEKGEIEIEVEVNGKKYTFTIPAEDIEIVESAGGSA [r15_381_TrROS_Hall],3.12 ± 0.077
16,SANGKEYTFTIEIRVRDPENGQPWTIRITVPIWYDPDDGKLDIDIDVTPTPGMPKEWAERIAKEIIEAISAG [r14_152_TrROS],3.95 ± 0.048
17,SAGGSEILKKLFPNVKKIEIEVEEVEVKYSEEEKKANPNKKVKVEVKVKVKIKIKIELEFDKNGKLSAGGSA [r2_404_TrROS_Hall],1.92 ± 0.19
18,SAGGSAGGSMYVVKIKLKVYGENGEEYYFELELEVPEDELGEIEIELPGENLEFEAEVEVLPGSAGGSAGGS [r12_354_TrMRF],3.73 ± 0.12
19,SAGGSAGGSMTIVDPETGETLEIIEVKKNEDGKESFIFRISSPKPRYFIIDKDGNIRVIEKKDSAGGSAGGS [r12_205_TrROS_Hall],1.23 ± 0.2
20,SAGGSAGGSNNPDKKKKPRYVVIQIELKWYPNPNGQWSPELEITATVPAGDLEDKDDAIKDIISAGGSAGGS [r12_933_TrROS],1.29 ± 0.064
21,SAGGSAGGSAGKIDPKDIEKVEFEIDEESGKGKAFVILKNGEPAEIEFSSIEEAIKALLGSAGGSAGGSAGG [r11_339_TrMRF],0.981 ± 0.14
